# Positions count from the first letter of the chain named. In names and notes the source's numbering stands.
# T1: human CCL17 (human, UniProt Q92583 24-94)
# T1 construct: Biotinylated in the Fab ELISAs; also called huCCL17; Bt-huCCL17
# T1 sequence: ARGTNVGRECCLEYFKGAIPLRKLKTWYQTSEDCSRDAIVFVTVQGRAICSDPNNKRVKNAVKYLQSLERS
# T2: cyno CCL17 (Macaca fascicularis (cyno), UniProt Q8HYP9 24-94 (rhesus entry))
# T2 construct: Biotinylated in the Fab ELISAs; also called cCCL17; cCCL-17
# T2 sequence: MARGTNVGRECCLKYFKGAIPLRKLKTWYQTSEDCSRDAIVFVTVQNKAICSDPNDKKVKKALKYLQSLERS
# B1: C17B293 (antibody, IgG1, V domains shown)
# VH: EVQLVQSGAEVKKPGESLKISCKGSGYSFTSYWIGWVRQMPGKGLEWMGIIDPSDSDTRYSPSFQGQVTISADKSISTAYLQWSSLKASDTAMYYCARVGPADVWDAFDYWGQGTLVTVSS
# VL: DIVMTQSPDSLAVSLGERATINCKSSQSVLLSFDNINKLAWYQQKPGQPPKLLIYDASTRESGVPDRFSGSGSGTDFTLTISSLQAEDVAVYYCQQFYSVPSTFGQGTKVEIK
# notes: Expressed as IgG1; Heavy chain S100cA (Kabat) paired with the light chain of C17B258; also called C17M293
# B2: C17B264 (antibody, IgG1, V domains shown)
# VH: B1 VH with A107S
# VL: B1 VL with D56I
# notes: Expressed as IgG1; Light chain N50I (Kabat) variant of C17B234
# B3: C17B262 (antibody, IgG1, V domains shown)
# VH: B1 VH with A107S
# VL: B1 VL with D56S
# notes: Expressed as IgG1; Light chain N50S (Kabat) variant of C17B234
# B4: C17B295 (antibody, IgG1, V domains shown)
# VH: B1 VH with D106E, A107S
# VL: B1 VL
# notes: Expressed as IgG1; Heavy chain D100bE (Kabat) paired with the light chain of C17B258
# B5: C17B257 (antibody, IgG1, V domains shown)
# VH: B1 VH with A107S
# VL: B1 VL with D56A
# notes: Expressed as IgG1; Light chain N50A (Kabat) variant of C17B234
# B6: C17B258 (antibody, IgG1, V domains shown)
# VH: B1 VH with A107S
# VL: B1 VL
# notes: Expressed as IgG1; Light chain N50D (Kabat) variant of C17B234
# B7: C17B294 (antibody, IgG1, V domains shown)
# VH: B1 VH with A107T
# VL: B1 VL
# notes: Expressed as IgG1; Heavy chain S100cT (Kabat) paired with the light chain of C17B258
# B8: C17B260 (antibody, IgG1, V domains shown)
# VH: B1 VH with A107S
# VL: B1 VL with D56G
# notes: Expressed as IgG1; Light chain N50G (Kabat) variant of C17B234
# B9: C17B263 (antibody, IgG1, V domains shown)
# VH: B1 VH with A107S
# VL: B1 VL with D56T
# notes: Expressed as IgG1; Light chain N50T (Kabat) variant of C17B234
# B10: C17F24 (parent) (antibody, V domains shown)
# VH: B1 VH with A107S
# VL: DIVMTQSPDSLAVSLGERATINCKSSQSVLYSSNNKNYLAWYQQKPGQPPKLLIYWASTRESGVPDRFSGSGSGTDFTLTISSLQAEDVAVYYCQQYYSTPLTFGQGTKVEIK
# B11: C17B240 (antibody, V domains shown)
# VH: B1 VH with A107S
# VL: B1 VL with L31Y, F33H, D34V, I36Y, K38A, D56N, F97Y, S99T, V100L, S102A
# notes: Full IgG1, kappa
# B12: C17B235 (antibody, V domains shown)
# VH: B1 VH with A107S
# VL: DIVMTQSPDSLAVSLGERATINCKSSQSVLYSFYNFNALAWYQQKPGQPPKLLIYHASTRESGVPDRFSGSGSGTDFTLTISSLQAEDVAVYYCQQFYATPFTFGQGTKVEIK
# notes: Full IgG1, kappa
# B13: C17B241 (antibody, V domains shown)
# VH: B1 VH with A107S
# VL: B1 VL with L31N, D34T, I36N, K38A, D56E, F97T, Y98N, V100I, S102L
# notes: Full IgG1, kappa
# B14: C17B243 (antibody, V domains shown)
# VH: B1 VH with A107S
# VL: B1 VL with L31N, I36K, K38D, D56E, F97H, Y98W, S99Q, V100T, S102L
# notes: Full IgG1, kappa
# B15: C17B237 (antibody, V domains shown)
# VH: B1 VH with A107S
# VL: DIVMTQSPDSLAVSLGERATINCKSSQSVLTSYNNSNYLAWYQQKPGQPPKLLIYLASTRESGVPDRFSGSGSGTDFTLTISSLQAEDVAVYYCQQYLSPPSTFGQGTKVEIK
# notes: Full IgG1, kappa
# B16: C17B242 (antibody, V domains shown)
# VH: B1 VH with A107S
# VL: B1 VL with L31F, F33H, I36L, K38T, D56H, F97Y, S99A, S102Q
# notes: Full IgG1, kappa
# B17: C17B239 (antibody, V domains shown)
# VH: B1 VH with A107S
# VL: B1 VL with L31S, D34T, I36T, K38T, D56H, F97Y, Y98L, S99I, V100Y
# notes: Full IgG1, kappa
# B18: C17B244 (antibody, V domains shown)
# VH: B1 VH with A107S
# VL: B1 VL with L31S, F33I, D34T, I36V, K38D, D56T, F97Y, S99H, V100D, S102F
# notes: Full IgG1, kappa
# B19: C17B238 (antibody, V domains shown)
# VH: B1 VH with A107S
# VL: B1 VL with L31I, F33A, D34F, I36Q, K38P, F97Y, Y98Q, S99F, V100I, S102F
# notes: Full IgG1, kappa
# B20: C17B302 (antibody, human IgG2, kappa, V domains shown)
# VH: B1 VH
# VL: DIVMTQSPDSLAVSLGERATINCKSSQSVLLSFDNINKLAWYQQKPGQPPKLLIYDASTRESGVPDRFSGSGSGTDFTLTISSLQAEDVAVYYCQQFYSVPSTFGQGTKVEIKR
# B21: C17B311 (antibody, V domains shown)
# VH: B1 VH
# VL: B1 VL
# Biological target: T1, human CCL17
# Assay: solution equilibrium affinity (MSD-SEA), IgG1
# Description: (§1) Equal volumes of the anti-hCCL17 mAbs at 40 pM or 200 pM were added to each chemokine dilution to obtain mixtures containing the serial dilution of chemokines starting at a final concentration of […] and a constant concentration (20 pM or 100 pM) of anti-CCL17 antibody. The mixtures were prepared in duplicate and incubated at 4° C. for 48 hours to reach equilibrium. The free antibody was detected using a SECTOR Imager 6000 (Meso Scale Discovery) instrument. The resulting binding curves were fitted to obtain the dissociation equilibrium constant (KD) using the GraphPad Prism software (v 5.01) using a 1:1 binding model to perform nonlinear least-square regression analysis of the data.
row,Binder,Kd
1,B1,< 0.0001 nM
2,B2,0.0004 nM
3,B3,0.0003 nM
4,B4,0.175 nM
5,B5,0.0001 nM
6,B6,0.0001 nM
7,B7,0.001 nM
8,B8,0.0005 nM
9,B9,0.0001 nM

# Biological target: T2, cyno CCL17
# Assay: solution equilibrium affinity (MSD-SEA), IgG1
# Description: as §1
row,Binder,Kd
1,B1,0.039 nM
2,B2,0.0718 nM
3,B3,0.0555 nM
4,B4,29.9 nM
5,B5,0.0656 nM
6,B6,0.0416 nM
7,B7,0.022 nM
8,B8,0.0364 nM
9,B9,0.0756 nM

# Biological target: T1, human CCL17
# Assay: solution equilibrium affinity (MSD-SEA), TBST, 48 h at 4 °C
# Description: as §1
row,Binder,Kd
1,B10,1 nM
2,B11,0.083 nM
3,B12,0.072 nM
4,B13,0.05 nM
5,B14,0.028 nM
6,B15,0.657 nM
7,B16,0.167 nM
8,B17,0.092 nM
9,B18,0.033 nM
10,B19,0.115 nM

# Biological target: T2, cyno CCL17
# Assay: as above
# Description: as §1
row,Binder,Kd
1,B11,4.6 nM
2,B12,9.5 nM
3,B13,0.583 nM
4,B14,0.677 nM
5,B15,3.07 nM
6,B16,0.384 nM
7,B17,0.63 nM
8,B18,0.565 nM
9,B19,1.46 nM

# Biological target: T1, human CCL17
# Assay: MSD-SEA; affinity for human CCL17 against that for cyno CCL17
# Description: as §1
row,Binder,Fold binding human/cyno CCL17
1,B11,55.4 fold
2,B2,180 fold
3,B12,132 fold
4,B3,185 fold
5,B4,171 fold
6,B13,11.7 fold
7,B5,656 fold
8,B14,24.2 fold
9,B15,4.7 fold
10,B6,416 fold
11,B7,22 fold
12,B16,2.3 fold
13,B17,6.8 fold
14,B18,17.1 fold
15,B19,12.7 fold
16,B8,72.8 fold
17,B9,756 fold

# Biological target: T1, human CCL17
# Assay: cell-based or functional assay
row,Binder,"IC50 (nM), calcium flux assay in CCRF-CEM cells, 10 ng/ml human CCL17"
1,B20,0.593 nM
2,B21,0.553 nM
3,B11,0.405 nM
4,B12,0.558 nM
5,B13,0.456 nM
6,B14,0.231 nM
7,B15,0.882 nM
8,B16,0.483 nM
9,B17,0.427 nM
10,B19,0.387 nM

# Biological target: T2, cyno CCL17
# Assay: cell-based or functional assay
row,Binder,"IC50 (nM), calcium flux assay in CCRF-CEM cells, 5 ng/ml cyno CCL17"
1,B20,0.238 nM
2,B21,0.239 nM
3,B11,0.308 nM
4,B12,0.919 nM
5,B13,0.339 nM
6,B14,0.31 nM
7,B15,0.549 nM
8,B16,0.34 nM
9,B17,0.43 nM
10,B18,0.311 nM
11,B19,0.348 nM

# Biological target: T1, human CCL17
# Assay: not stated in the legend (affinities by MSD-SEA in Examples 3 and 4)
row,Binder,Kd
1,B11,≤ 100 nM
2,B1,≤ 100 nM
3,B12,≤ 100 nM
4,B13,≤ 100 nM
5,B14,≤ 100 nM
6,B7,≤ 100 nM
7,B17,≤ 100 nM
8,B18,≤ 100 nM

# Biological target: T1, human CCL17
# Assay: cell-based or functional assay
# Remark: another data set of the same source
row,Binder,"IC50 (nM), β-arrestin assay, Hek293 cells co-expressing CCR4, 20 nM CCL17"
1,B20,13.9 nM
2,B21,10.7 nM

# Biological target: T2, cyno CCL17
# Assay: cell-based or functional assay
# Remark: another data set of the same source
row,Binder,"IC50 (nM), β-arrestin assay, Hek293 cells co-expressing CCR4, 20 nM CCL17"
1,B20,13.4 nM
2,B21,10.3 nM

# Source: patent publication US20220348647A1 (published 2022)
